Sequences and labels used below:
B1: SWI/SNF complex subunit SMARCC2, residues 599 to 641; numbered along this chain, Q8TAQ2 (parent)
chain: REWTEQETLLLLEALEMYKDDWNKVSEHVGSRTQDECILHFLR
B2: Zinc finger homeobox protein 4, residues 2183 to 2238; numbered along this chain, Q86UP3 (parent)
chain: SSRTRFTDYQLRVLQDFFDTNAYPKDDEIEQLSTVLNLPTRVIVVWFQNARQKARK

± gives the uncertainty stated by the source.

Variants of B1 are the subject of the first data set. The data set is described as follows: abundance fitness (aPCA) (normalised: wild type 0, dead -1); higher = more abundant; growth selection in yeast, the domain comes from the species named. To be noted: Homo sapiens.
In the case of E5A, the abundance fitness was -0.227 ± 0.11. On the same count and under the same terms, the same measure for I38D: -0.015 ± 0.1. Turning to D21W, the abundance fitness was -0.493 ± 0.27.

Regarding D21Y, the abundance fitness is -0.541 ± 0.33. Still for that read-out and setting: the same measure for V25C: 0.316 ± 0.12; for E13M: -0.222 ± 0.099. Regarding K24V, the abundance fitness is -0.389 ± 0.08.

Turning to Q34N, the abundance fitness turned out to be 0.051 ± 0.093. On to Q34H, for which the abundance fitness was found to be 0.058 ± 0.1.

Consider Q34S, for which the abundance fitness was determined as 0.056 ± 0.067.

Regarding Q34P, the abundance fitness was found to be 0.02 ± 0.075.

As to Q34I, the abundance fitness is -0.074 ± 0.078. For E36M, the abundance fitness is -0.897 ± 0.23. Same read-out and setting: the same measure for E2D: 0.56 ± 0.11. Regarding E2K, the abundance fitness came to 0.344 ± 0.17.

Turning to E2S, the abundance fitness was determined as 0.37 ± 0.076. As to R1G, the abundance fitness is 0.142 ± 0.057.

For W22F, the abundance fitness was -0.389 ± 0.12. As to L39T, the abundance fitness stood at 0.235 ± 0.067.

L39N: the abundance fitness stood at 0.024 ± 0.12. With L39S, the abundance fitness is 0.071 ± 0.093.

Turning to L39D, the abundance fitness turned out to be 0.642 ± 0.34. On the same count and under the same terms, as for T33E, the figure is -0.263 ± 0.23; as for C37Q, -0.2 ± 0.2; as for C37D, -0.471 ± 0.22. The same measure, in the same setting: as for L42H, the figure is 0.615 ± 0.16; as for W3N, -0.226 ± 0.13; as for F41I, -0.299 ± 0.11. Consider F41T, for which the abundance fitness was determined as 0.047 ± 0.079. Regarding F41D, the abundance fitness was determined as 0.344 ± 0.065. Same read-out and setting: the same measure for H28D: -1.16 ± 0.23; for M17C: -0.283 ± 0.17.

For M17S, the abundance fitness is -0.167 ± 0.086.

As to N23H, the abundance fitness is -0.009 ± 0.077. As for N23A, the abundance fitness was 0.204 ± 0.064. In the case of N23G, the abundance fitness came to 0.112 ± 0.059. Take N23L: the abundance fitness amounted to 0.026 ± 0.067. As for R32S, the abundance fitness was -1.07 ± 0.17.

In the case of R32V, the abundance fitness was -0.523 ± 0.13.

On to R32W, for which the abundance fitness is -0.583 ± 0.15. As to E7F, the abundance fitness is -1.44 ± 0.41.

Consider L11Q, for which the abundance fitness is -0.556 ± 0.12. Same read-out and setting: as for E27C, the figure is -0.379 ± 0.092; as for E27V, -0.515 ± 0.12; as for E27H, -0.407 ± 0.18. For G30E, the abundance fitness is 0.092 ± 0.1. Regarding G30F, the abundance fitness was -0.325 ± 0.11. Still for that read-out and setting: as for G30A, the figure is -0.057 ± 0.085; as for G30Q, -0.668 ± 0.13; as for L15R, 0.454 ± 0.06. Still for that read-out and setting: as for T8A, the figure is 0.109 ± 0.074; as for T8R, 0.354 ± 0.054; as for E16H, -0.294 ± 0.29. Same read-out and setting: as for E16T, the figure is -0.091 ± 0.084; as for T4Y, -0.307 ± 0.31; as for L10R, -0.208 ± 0.079.

As to L10G, the abundance fitness was -0.171 ± 0.1.

Regarding Q6S, the abundance fitness is -0.015 ± 0.076. Take Q6G: the abundance fitness amounted to 0.002 ± 0.089. With K19D, the abundance fitness is -0.143 ± 0.079. Still for that read-out and setting: as for K19P, the figure is -0.052 ± 0.074. On to K19A, for which the abundance fitness was -0.26 ± 0.074. Same read-out and setting: the same measure for H40D: -0.173 ± 0.2.

The next data set covers variants of B2. The data set is described as above. Particulars: Homo sapiens.
On to A54D, for which the abundance fitness is -0.068 ± 0.12. Regarding A54R, the abundance fitness was -0.179 ± 0.1. In the case of A54H, the abundance fitness is -0.039 ± 0.094.

As to A54M, the abundance fitness was -0.013 ± 0.2.

Turning to A54T, the abundance fitness is -0.1 ± 0.097. On the same count and under the same terms, as for A54K, the figure is -0.232 ± 0.23. On the same count and under the same terms, as for A54E, the figure is -0.013 ± 0.23; as for A54G, -0.06 ± 0.12; as for A54P, -0.073 ± 0.088. For the variant A54L, the abundance fitness is -0.079 ± 0.093. For the variant A54C, the abundance fitness came to 0.062 ± 0.17.

For the variant A54Q, the abundance fitness is 0.01 ± 0.17. On the same count and under the same terms, the same measure for A54I: -0.096 ± 0.13. Take A54W: the abundance fitness is -0.211 ± 0.18. The same measure, in the same setting: the same measure for A54N: 0.081 ± 0.12; for A54V: -0.053 ± 0.1; for A54F: -0.06 ± 0.12.

In the case of A54Y, the abundance fitness is -0.277 ± 0.15.

As for K53W, the abundance fitness is -0.178 ± 0.1. As to K53Q, the abundance fitness was -0.155 ± 0.11. As for K53P, the abundance fitness is -0.054 ± 0.12. Still for that read-out and setting: the same measure for K53T: 0.028 ± 0.12; for K53S: -0.06 ± 0.095. Regarding K53G, the abundance fitness came to 0.023 ± 0.073. With K53M, the abundance fitness was determined as 0.119 ± 0.15.

For K53C, the abundance fitness turned out to be 0.11 ± 0.13. As for K53Y, the abundance fitness is -0.223 ± 0.19.

K53R: the abundance fitness was -0.137 ± 0.079. Same read-out and setting: as for K53F, the figure is 0.036 ± 0.15. With K53L, the abundance fitness turned out to be 0.144 ± 0.085.

Turning to K53I, the abundance fitness is -0.124 ± 0.16. Take K53D: the abundance fitness was determined as 0.109 ± 0.16. On the same count and under the same terms, as for K53A, the figure is 0.145 ± 0.099.

In the case of K53E, the abundance fitness turned out to be 0.262 ± 0.11. Take K53H: the abundance fitness was determined as 0.126 ± 0.17. Same read-out and setting: as for R51E, the figure is -0.144 ± 0.27; as for R51F, -0.221 ± 0.23. For the variant R51D, the abundance fitness was -0.304 ± 0.26. On the same count and under the same terms, as for R51C, the figure is -0.128 ± 0.24; as for R51G, -0.317 ± 0.1.

In the case of R51A, the abundance fitness is -0.24 ± 0.13. In the case of R51M, the abundance fitness is -0.219 ± 0.23. As for R51W, the abundance fitness is -0.194 ± 0.13.

R51T: the abundance fitness was -0.608 ± 0.24. Consider R51V, for which the abundance fitness is -0.043 ± 0.13. Regarding R51Q, the abundance fitness was -0.251 ± 0.24.

Consider R51K, for which the abundance fitness was determined as 0.035 ± 0.26. Still for that read-out and setting: the same measure for R51I: -0.235 ± 0.2. For the variant R51N, the abundance fitness was -0.488 ± 0.34. Still for that read-out and setting: the same measure for R51P: -0.898 ± 0.24. For R51Y, the abundance fitness is -0.175 ± 0.31.

Consider R51H, for which the abundance fitness is -0.462 ± 0.25.

R55I: the abundance fitness came to 0.307 ± 0.23. The same measure, in the same setting: the same measure for R55P: -0.113 ± 0.15. Still for that read-out and setting: the same measure for R55Y: 0.176 ± 0.39; for R55V: -0.161 ± 0.12. In the case of R55T, the abundance fitness was 0.004 ± 0.19. Same read-out and setting: the same measure for R55S: -0.069 ± 0.14. Still for that read-out and setting: as for R55L, the figure is 0.223 ± 0.13; as for R55F, -0.369 ± 0.27. On the same count and under the same terms, as for R55Q, the figure is -0.1 ± 0.34. Consider R55E, for which the abundance fitness is -0.129 ± 0.19. For R55W, the abundance fitness is -0.286 ± 0.14. Regarding R55C, the abundance fitness was -0.104 ± 0.22. On the same count and under the same terms, as for R55G, the figure is -0.048 ± 0.092. Consider R55A, for which the abundance fitness was -0.111 ± 0.13. Turning to R55M, the abundance fitness worked out at 0.154 ± 0.3. On to R55H, for which the abundance fitness is 0.187 ± 0.18. Still for that read-out and setting: as for R55D, the figure is -0.041 ± 0.21; as for K56T, 0.029 ± 0.24. Still for that read-out and setting: as for K56C, the figure is -0.27 ± 0.27; as for K56Q, -0.178 ± 0.27. The same measure, in the same setting: the same measure for K56R: -0.188 ± 0.14. Consider K56I, for which the abundance fitness is -0.238 ± 0.38. Still for that read-out and setting: the same measure for K56H: -0.012 ± 0.23; for K56L: -0.33 ± 0.37; for K56N: -0.248 ± 0.18.

Turning to K56E, the abundance fitness is -0.547 ± 0.29. Turning to K56P, the abundance fitness was determined as 0.04 ± 0.38. Same read-out and setting: as for K56Y, the figure is 0.061 ± 0.21; as for K56G, -0.038 ± 0.19; as for K56D, -0.06 ± 0.23. K56S: the abundance fitness is -0.366 ± 0.15. On the same count and under the same terms, as for K56M, the figure is -0.079 ± 0.24; as for A50P, -0.87 ± 0.29. The same measure, in the same setting: the same measure for A50R: -0.155 ± 0.086; for A50K: -0.347 ± 0.2; for A50V: -0.044 ± 0.12.

On to A50Q, for which the abundance fitness was -0.113 ± 0.18. Same read-out and setting: as for A50L, the figure is -0.256 ± 0.12; as for A50N, -0.033 ± 0.22. Turning to A50T, the abundance fitness is -0.087 ± 0.19. Same read-out and setting: the same measure for Q52N: -0.166 ± 0.2; for Q52L: -0.121 ± 0.11. Same read-out and setting: as for Q52A, the figure is -0.418 ± 0.24. As to Q52T, the abundance fitness stood at 0.011 ± 0.14. Still for that read-out and setting: the same measure for Q52S: -0.275 ± 0.16; for Q52P: -0.049 ± 0.15. Same read-out and setting: the same measure for Q52Y: -0.256 ± 0.28; for Q52R: -0.401 ± 0.19; for Q52M: -0.308 ± 0.39.

On to Q52E, for which the abundance fitness was found to be 0.068 ± 0.32.

Take Q52V: the abundance fitness was 0.026 ± 0.19. Same read-out and setting: the same measure for Q52H: -0.015 ± 0.23.
